Measured values from patent US20230416330A1, “Optimized GIP Peptide Analogues” (Antag Therapeutics ApS, priority 2019, published 2023).
Non-standard residues stand in square brackets, D forms with d. No end group written: not given here. *: point of attachment. C16 diacid = O=C(O)CCCCCCCCCCCCCCC(=O)*; Nle = CCCC[C@H](N)C(=O)O; Aib = CC(C)(N)C(=O)O

T1: human GIP receptor (human, UniProt P48546 22-466)
T1 sequence (looked up): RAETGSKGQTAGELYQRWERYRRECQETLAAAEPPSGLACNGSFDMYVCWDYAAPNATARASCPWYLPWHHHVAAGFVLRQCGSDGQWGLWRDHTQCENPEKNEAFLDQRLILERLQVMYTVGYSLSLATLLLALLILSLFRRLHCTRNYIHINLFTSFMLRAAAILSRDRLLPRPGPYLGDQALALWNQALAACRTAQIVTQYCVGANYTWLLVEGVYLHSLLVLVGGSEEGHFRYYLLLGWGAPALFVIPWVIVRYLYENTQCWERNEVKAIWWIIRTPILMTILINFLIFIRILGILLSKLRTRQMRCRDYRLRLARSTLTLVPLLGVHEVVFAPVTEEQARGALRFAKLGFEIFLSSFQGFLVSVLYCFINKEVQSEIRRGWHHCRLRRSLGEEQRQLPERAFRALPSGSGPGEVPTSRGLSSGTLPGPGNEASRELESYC

B1: AT616 (peptide)
peptide: EGTFISEYSI[Aib]MEKIK(C16 diacid)QQDFVEWLLAQKPSSGAPPPS-OH
modifications: N-terminus assumed
SMILES: CC[C@H](C)[C@H](NC(=O)[C@H](CCCCN)NC(=O)[C@H](CCC(=O)O)NC(=O)[C@H](CCSC)NC(=O)C(C)(C)NC(=O)[C@@H](NC(=O)[C@H](CO)NC(=O)[C@H](Cc1ccc(O)cc1)NC(=O)[C@H](CCC(=O)O)NC(=O)[C@H](CO)NC(=O)[C@@H](NC(=O)[C@H](Cc1ccccc1)NC(=O)[C@@H](NC(=O)CNC(=O)[C@@H](N)CCC(=O)O)[C@@H](C)O)[C@@H](C)CC)[C@@H](C)CC)C(=O)N[C@@H](CCCCNC(=O)CCCCCCCCCCCCCCC(=O)O)C(=O)N[C@@H](CCC(N)=O)C(=O)N[C@@H](CCC(N)=O)C(=O)N[C@@H](CC(=O)O)C(=O)N[C@@H](Cc1ccccc1)C(=O)N[C@H](C(=O)N[C@@H](CCC(=O)O)C(=O)N[C@@H](Cc1c[nH]c2ccccc12)C(=O)N[C@@H](CC(C)C)C(=O)N[C@@H](CC(C)C)C(=O)N[C@@H](C)C(=O)N[C@@H](CCC(N)=O)C(=O)N[C@@H](CCCCN)C(=O)N1CCC[C@H]1C(=O)N[C@@H](CO)C(=O)N[C@@H](CO)C(=O)NCC(=O)N[C@@H](C)C(=O)N1CCC[C@H]1C(=O)N1CCC[C@H]1C(=O)N1CCC[C@H]1C(=O)N[C@@H](CO)C(=O)O)C(C)C
B2: AT617 (peptide)
peptide: EGTFISDYSIAMDKIK(C16 diacid)QQDFVEWLLAQKPSSGAPPPS-OH
modifications: N-terminus assumed
SMILES: CC[C@H](C)[C@H](NC(=O)[C@H](CO)NC(=O)[C@H](Cc1ccc(O)cc1)NC(=O)[C@H](CC(=O)O)NC(=O)[C@H](CO)NC(=O)[C@@H](NC(=O)[C@H](Cc1ccccc1)NC(=O)[C@@H](NC(=O)CNC(=O)[C@@H](N)CCC(=O)O)[C@@H](C)O)[C@@H](C)CC)C(=O)N[C@@H](C)C(=O)N[C@@H](CCSC)C(=O)N[C@@H](CC(=O)O)C(=O)N[C@@H](CCCCN)C(=O)N[C@H](C(=O)N[C@@H](CCCCNC(=O)CCCCCCCCCCCCCCC(=O)O)C(=O)N[C@@H](CCC(N)=O)C(=O)N[C@@H](CCC(N)=O)C(=O)N[C@@H](CC(=O)O)C(=O)N[C@@H](Cc1ccccc1)C(=O)N[C@H](C(=O)N[C@@H](CCC(=O)O)C(=O)N[C@@H](Cc1c[nH]c2ccccc12)C(=O)N[C@@H](CC(C)C)C(=O)N[C@@H](CC(C)C)C(=O)N[C@@H](C)C(=O)N[C@@H](CCC(N)=O)C(=O)N[C@@H](CCCCN)C(=O)N1CCC[C@H]1C(=O)N[C@@H](CO)C(=O)N[C@@H](CO)C(=O)NCC(=O)N[C@@H](C)C(=O)N1CCC[C@H]1C(=O)N1CCC[C@H]1C(=O)N1CCC[C@H]1C(=O)N[C@@H](CO)C(=O)O)C(C)C)[C@@H](C)CC
B3: AT623 (peptide)
peptide: EGTFISDYSIAMDKIK(C16 diacid)QQDFVEWLLAQAPSSGAPPPS-OH
modifications: N-terminus assumed
SMILES: CC[C@H](C)[C@H](NC(=O)[C@H](CO)NC(=O)[C@H](Cc1ccc(O)cc1)NC(=O)[C@H](CC(=O)O)NC(=O)[C@H](CO)NC(=O)[C@@H](NC(=O)[C@H](Cc1ccccc1)NC(=O)[C@@H](NC(=O)CNC(=O)[C@@H](N)CCC(=O)O)[C@@H](C)O)[C@@H](C)CC)C(=O)N[C@@H](C)C(=O)N[C@@H](CCSC)C(=O)N[C@@H](CC(=O)O)C(=O)N[C@@H](CCCCN)C(=O)N[C@H](C(=O)N[C@@H](CCCCNC(=O)CCCCCCCCCCCCCCC(=O)O)C(=O)N[C@@H](CCC(N)=O)C(=O)N[C@@H](CCC(N)=O)C(=O)N[C@@H](CC(=O)O)C(=O)N[C@@H](Cc1ccccc1)C(=O)N[C@H](C(=O)N[C@@H](CCC(=O)O)C(=O)N[C@@H](Cc1c[nH]c2ccccc12)C(=O)N[C@@H](CC(C)C)C(=O)N[C@@H](CC(C)C)C(=O)N[C@@H](C)C(=O)N[C@@H](CCC(N)=O)C(=O)N[C@@H](C)C(=O)N1CCC[C@H]1C(=O)N[C@@H](CO)C(=O)N[C@@H](CO)C(=O)NCC(=O)N[C@@H](C)C(=O)N1CCC[C@H]1C(=O)N1CCC[C@H]1C(=O)N1CCC[C@H]1C(=O)N[C@@H](CO)C(=O)O)C(C)C)[C@@H](C)CC
B4: AT668 (peptide)
peptide: EGTFISDYSIALDKIK(C16 diacid)QQDFVEWLLAQKPSSGAPPPS-OH
modifications: N-terminus assumed
SMILES: CC[C@H](C)[C@H](NC(=O)[C@H](CO)NC(=O)[C@H](Cc1ccc(O)cc1)NC(=O)[C@H](CC(=O)O)NC(=O)[C@H](CO)NC(=O)[C@@H](NC(=O)[C@H](Cc1ccccc1)NC(=O)[C@@H](NC(=O)CNC(=O)[C@@H](N)CCC(=O)O)[C@@H](C)O)[C@@H](C)CC)C(=O)N[C@@H](C)C(=O)N[C@@H](CC(C)C)C(=O)N[C@@H](CC(=O)O)C(=O)N[C@@H](CCCCN)C(=O)N[C@H](C(=O)N[C@@H](CCCCNC(=O)CCCCCCCCCCCCCCC(=O)O)C(=O)N[C@@H](CCC(N)=O)C(=O)N[C@@H](CCC(N)=O)C(=O)N[C@@H](CC(=O)O)C(=O)N[C@@H](Cc1ccccc1)C(=O)N[C@H](C(=O)N[C@@H](CCC(=O)O)C(=O)N[C@@H](Cc1c[nH]c2ccccc12)C(=O)N[C@@H](CC(C)C)C(=O)N[C@@H](CC(C)C)C(=O)N[C@@H](C)C(=O)N[C@@H](CCC(N)=O)C(=O)N[C@@H](CCCCN)C(=O)N1CCC[C@H]1C(=O)N[C@@H](CO)C(=O)N[C@@H](CO)C(=O)NCC(=O)N[C@@H](C)C(=O)N1CCC[C@H]1C(=O)N1CCC[C@H]1C(=O)N1CCC[C@H]1C(=O)N[C@@H](CO)C(=O)O)C(C)C)[C@@H](C)CC
B5: AT673 (peptide)
peptide: EGTFISEYSI[Aib]LEKIK(C16 diacid)QQEFVEWLLAQKPSSGAPPPS-OH
modifications: N-terminus assumed
SMILES: CC[C@H](C)[C@H](NC(=O)[C@H](CCCCN)NC(=O)[C@H](CCC(=O)O)NC(=O)[C@H](CC(C)C)NC(=O)C(C)(C)NC(=O)[C@@H](NC(=O)[C@H](CO)NC(=O)[C@H](Cc1ccc(O)cc1)NC(=O)[C@H](CCC(=O)O)NC(=O)[C@H](CO)NC(=O)[C@@H](NC(=O)[C@H](Cc1ccccc1)NC(=O)[C@@H](NC(=O)CNC(=O)[C@@H](N)CCC(=O)O)[C@@H](C)O)[C@@H](C)CC)[C@@H](C)CC)C(=O)N[C@@H](CCCCNC(=O)CCCCCCCCCCCCCCC(=O)O)C(=O)N[C@@H](CCC(N)=O)C(=O)N[C@@H](CCC(N)=O)C(=O)N[C@@H](CCC(=O)O)C(=O)N[C@@H](Cc1ccccc1)C(=O)N[C@H](C(=O)N[C@@H](CCC(=O)O)C(=O)N[C@@H](Cc1c[nH]c2ccccc12)C(=O)N[C@@H](CC(C)C)C(=O)N[C@@H](CC(C)C)C(=O)N[C@@H](C)C(=O)N[C@@H](CCC(N)=O)C(=O)N[C@@H](CCCCN)C(=O)N1CCC[C@H]1C(=O)N[C@@H](CO)C(=O)N[C@@H](CO)C(=O)NCC(=O)N[C@@H](C)C(=O)N1CCC[C@H]1C(=O)N1CCC[C@H]1C(=O)N1CCC[C@H]1C(=O)N[C@@H](CO)C(=O)O)C(C)C
B6: AT674 (peptide)
peptide: EGTFISEYSI[Aib][Nle]EKIK(C16 diacid)QQEFVEWLLAQKPSSGAPPPS-OH
modifications: N-terminus assumed
SMILES: CCCC[C@H](NC(=O)C(C)(C)NC(=O)[C@@H](NC(=O)[C@H](CO)NC(=O)[C@H](Cc1ccc(O)cc1)NC(=O)[C@H](CCC(=O)O)NC(=O)[C@H](CO)NC(=O)[C@@H](NC(=O)[C@H](Cc1ccccc1)NC(=O)[C@@H](NC(=O)CNC(=O)[C@@H](N)CCC(=O)O)[C@@H](C)O)[C@@H](C)CC)[C@@H](C)CC)C(=O)N[C@@H](CCC(=O)O)C(=O)N[C@@H](CCCCN)C(=O)N[C@H](C(=O)N[C@@H](CCCCNC(=O)CCCCCCCCCCCCCCC(=O)O)C(=O)N[C@@H](CCC(N)=O)C(=O)N[C@@H](CCC(N)=O)C(=O)N[C@@H](CCC(=O)O)C(=O)N[C@@H](Cc1ccccc1)C(=O)N[C@H](C(=O)N[C@@H](CCC(=O)O)C(=O)N[C@@H](Cc1c[nH]c2ccccc12)C(=O)N[C@@H](CC(C)C)C(=O)N[C@@H](CC(C)C)C(=O)N[C@@H](C)C(=O)N[C@@H](CCC(N)=O)C(=O)N[C@@H](CCCCN)C(=O)N1CCC[C@H]1C(=O)N[C@@H](CO)C(=O)N[C@@H](CO)C(=O)NCC(=O)N[C@@H](C)C(=O)N1CCC[C@H]1C(=O)N1CCC[C@H]1C(=O)N1CCC[C@H]1C(=O)N[C@@H](CO)C(=O)O)C(C)C)[C@@H](C)CC

Target: T1, human GIP receptor
Test: cell-based or functional assay

Binder | cAMP antagonism % inhib (CisBio assay) [%] | cAMP antagonism nM (IC50, CisBio assay) [nM] | cAMP antagonism pIC50 (CisBio assay)
B1 | 100 | 0.473 | 9.3
B2 | 91 | 0.794 | 9.1
B3 | 98 | 3.16 | 8.5
EGTFISDYSI[Aib]MDKIK(C16 diacid)QQDFVEWLLAQKPSSGAPPPS-OH [AT665] | 88 | 0.15 | 9.8
EGTFISDYSI[Aib]LDKIK(C16 diacid)QQDFVEWLLAQKPSSGAPPPS-OH [AT666] | 89 | 0.266 | 9.6
EGTFISDYSI[Aib][Nle]DKIK(C16 diacid)QQDFVEWLLAQKPSSGAPPPS-OH [AT667] | 86 | 0.736 | 9.1
B4 | 92 | 0.944 | 9
B5 | 94 | 0.136 | 9.9
B6 | 93 | 0.447 | 9.4
